Source: patent US20120088722A1 (PROTEAPEX THERAPEUTICS, published 2012)
Ends that are not written are not given here.

Assays:
[1] = biological target: T1, recombinant protein of the calcium-binding, EGF-like domains of LTBP1 (CE-LTBP1); test: fluorescent peptide (100 nM) binding to plate-dried recombinant CE-LTBP1, reference scrambled peptide
T1 construct: It was dried onto poly-L-lysine coated wells
Method: (§1) Peptide binding assay—Twenty-five micrograms of total equal protein from cartilage CHAPS extracts or five nanograms recombinant protein of the calcium-like EGF binding domain of LTBP1 (a kind gift of Sarah Dallas) or hypertrophic cartilage from day 17 avian embryo sterna and tibial growth plate cartilage from day 14 newborn rat pups were extracted with 0.5% CHAPS buffer and eluates immunoprecipitated with polyclonal antibody to LTBP1 and then samples were plated onto poly-L-lysine coated 96 well plates. After overnight drying, the protein-coated wells were incubated with 100 nM fluorescent-labeled peptide in Tris buffered saline [150 mM NaCl, 10 mM Tris, pH 8.0] and 20% horse serum for 4 hours at 16° C. After incubation, the wells are washed twice with binding buffer, the protein layer solubilized with 5N NaOH and fluorescence bound measured at 495 nm excitation and 520 nm emission on the LabSystems Fluoroskan Ascent CF plate reader. Statistical analyses and graphing were performed with Prism GraphPad software (ANOVA with Turkey's Analysis). A scrambled peptide of the same amino acid composition was prepared as a negative control. Competition assays were conducted in the presence of 10-fold more (1 μM) naked peptide.

[2] = biological target: T2, LTBP1 immunoprecipitated from rat tibial growth plate cartilage (rat, UniProt Q00918 21-1712, limits assumed); test: fluorescent peptide (100 nM) binding to plate-dried LTBP1 immunoprecipitate of rat tibial growth plate cartilage, reference scrambled peptide
T2 construct: An immunoprecipitate: proteins associated with LTBP1 may be present; also called rat tibial growth plate cartilage immunoprecipitated extracts
T2 sequence (Q00918 21-1712 limits assumed): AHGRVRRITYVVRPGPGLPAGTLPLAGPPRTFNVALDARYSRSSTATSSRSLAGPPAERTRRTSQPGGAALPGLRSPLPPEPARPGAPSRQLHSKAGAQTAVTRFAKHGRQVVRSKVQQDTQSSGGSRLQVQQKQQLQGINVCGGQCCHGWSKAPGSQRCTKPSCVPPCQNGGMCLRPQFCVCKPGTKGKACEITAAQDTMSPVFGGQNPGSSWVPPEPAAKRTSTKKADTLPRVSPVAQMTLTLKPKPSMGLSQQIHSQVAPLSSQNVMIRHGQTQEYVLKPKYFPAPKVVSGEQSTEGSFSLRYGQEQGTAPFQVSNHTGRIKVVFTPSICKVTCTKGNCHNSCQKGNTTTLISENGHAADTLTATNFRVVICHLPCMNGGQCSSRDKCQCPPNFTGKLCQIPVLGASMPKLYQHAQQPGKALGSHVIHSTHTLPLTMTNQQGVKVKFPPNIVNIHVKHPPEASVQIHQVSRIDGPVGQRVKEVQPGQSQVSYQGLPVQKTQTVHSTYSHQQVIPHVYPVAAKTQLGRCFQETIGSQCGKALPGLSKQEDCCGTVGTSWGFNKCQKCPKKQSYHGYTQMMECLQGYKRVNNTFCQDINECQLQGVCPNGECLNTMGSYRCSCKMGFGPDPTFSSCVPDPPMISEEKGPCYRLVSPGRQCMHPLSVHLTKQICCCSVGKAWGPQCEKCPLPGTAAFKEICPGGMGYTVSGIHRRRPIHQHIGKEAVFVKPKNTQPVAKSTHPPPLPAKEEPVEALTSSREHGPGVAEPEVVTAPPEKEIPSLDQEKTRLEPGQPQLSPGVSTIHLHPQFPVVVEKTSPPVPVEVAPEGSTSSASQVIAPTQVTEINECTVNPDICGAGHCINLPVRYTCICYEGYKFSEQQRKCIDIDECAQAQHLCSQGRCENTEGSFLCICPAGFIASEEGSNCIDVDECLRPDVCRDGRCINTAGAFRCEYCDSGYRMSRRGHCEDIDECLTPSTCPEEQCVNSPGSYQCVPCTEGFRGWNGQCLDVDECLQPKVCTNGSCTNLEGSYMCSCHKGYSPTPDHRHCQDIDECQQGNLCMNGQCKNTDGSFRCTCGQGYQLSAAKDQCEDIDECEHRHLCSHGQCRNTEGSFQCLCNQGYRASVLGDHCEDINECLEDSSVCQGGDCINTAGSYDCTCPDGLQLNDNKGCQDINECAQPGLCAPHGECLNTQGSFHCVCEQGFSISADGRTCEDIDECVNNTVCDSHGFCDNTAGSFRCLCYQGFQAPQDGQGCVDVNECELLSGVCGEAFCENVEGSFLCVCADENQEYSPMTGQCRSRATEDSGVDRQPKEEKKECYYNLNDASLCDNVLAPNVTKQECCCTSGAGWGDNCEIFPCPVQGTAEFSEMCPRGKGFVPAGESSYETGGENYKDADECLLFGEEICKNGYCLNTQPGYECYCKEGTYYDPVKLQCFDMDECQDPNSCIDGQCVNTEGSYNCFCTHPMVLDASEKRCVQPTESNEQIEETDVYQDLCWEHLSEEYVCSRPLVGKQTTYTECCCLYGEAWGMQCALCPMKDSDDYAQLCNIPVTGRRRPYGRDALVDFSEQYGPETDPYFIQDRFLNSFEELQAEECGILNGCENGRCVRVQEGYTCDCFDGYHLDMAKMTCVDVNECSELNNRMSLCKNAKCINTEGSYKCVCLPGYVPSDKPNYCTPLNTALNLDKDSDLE
Method: as §1

[3] = biological target: T3, LTBP1 immunoprecipitated from avian hypertrophic cartilage (avian (chick embryo)); test: fluorescent peptide (100 nM) binding to plate-dried LTBP1 immunoprecipitate of avian hypertrophic cartilage, reference scrambled peptide
T3 construct: An immunoprecipitate: proteins associated with LTBP1 (TGFβ LLC components) may be present; also called hypertrophic cartilage immunoprecipitates
Method: as §1

B1: MMP13-19 peptide (amino acids 93-111 of SEQ ID NO: 1) (peptide)
peptide: ELGLPKEVKKISAAVHFED
modifications: also: fluorescent-labeled in binding assay, label and position not given here
notes: also called MPP13-19; pxpt 001-1
[1]
  fold binding over scrambled peptide: 27 fold
[2]
  fold binding over scrambled control: 3.9 fold
[3]
  fold binding over scrambled control: 10.5 fold
